# Source: the RNAGym collection of RNA variant scans (doi:10.1073/pnas.2313332121)
# Variants at the floor of the assay were thinned out.
# B1: TPR 5TU (parent)
# chain: GGAUCUUCUCGAUCUAACAAAAAAGACAAAUCUGCCACAAAGCUUGAGAGCAUCUUCGGAUGCAGAGGCGGCAGCCUUCGGUGGCGCGAUAGCGCCAACGUUCUCAACUAUGACACGCAAAACGCGUGCUCCGUUGAAUGGAGUUUAUCAUG
# Variants of: B1
# Assay: polymerase ribozyme fitness, log enrichment relative to wild type (log ratio); higher = more active; in vitro selection for triplet polymerase activity
# Outline: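 After PCR construction and transcription, each subunit's mutant library from a heterodimeric triplet polymerase ribozyme was annealed with a biotinylated primer, the partner subunit and triplets. Incubation was frozen, at −7 °C, and extended constructs were gel-excised, bound to streptavidin beads and amplified by RT-PCR, in one selection round done in triplicate. Fitness is the logarithm of a genotype's enrichment divided by that of the wild type, from inverse-variance-weighted replicate averages of Illumina-sequenced inputs and outputs. The base of the logarithm is 2, and genotypes needed ≥10 input reads and ≥1 read per output.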
row,Variant,polymerase ribozyme fitness (log ratio)
1,G50U G81A U102G,-2.74
2,G50A G83C U146G,-2.55
3,G50U A60U,-0.536
4,C51A C87A G133U C149G,≤ -4.2
5,G50A G84U G141U,-3.31
6,G50C U56A,-2.92
7,G50C G68A A142U,≤ -4.2
8,C51G U56A,-2.67
9,G50U C93U,-2.05
10,G50C,-2.52
11,G50U,0.257
12,G50C C87U C123A C125G,-3.47
13,G50U U56A G94U A106G C116G C123U,-0.9
14,G50U C63U C79G C131G A137C,≤ -4.2
15,G50C G117A,-2.37
16,G50U U102A A142U,-2.57
17,G50C C57G U77A G81A G86C C96A G143A,≤ -4.2
18,C51A A52U C63U C99G A106C A119G G126U,≤ -4.2
19,G50U C57U G84U C103U,-2.21
20,C51G C85U,-1.91
21,G50C C118U,-3.01
22,G50C C118A,-4.05
23,G50C C51G A52U C76U G84U C105U C114U G133A,≤ -4.2
24,G50C A64U C93G U111G C116U G143U,≤ -4.2

row,Variant,polymerase ribozyme fitness (log ratio)
1,G50C G92A C116U U151C,≤ -4.2
2,G50C U61A A110U U145G,≤ -4.2
3,G50A G65A C85U,-3.49
4,G50C C51U C87U G152U,≤ -4.2
5,C51G U56A G117U,-2.86
6,C51G A91G G92U U101C,≤ -4.2
7,G50U C63U C85A A110G,-4.19
8,G50U A120U C125G,-0.502
9,G50C A52C C105A C125A A142C U146A,≤ -4.2
10,G50C C76A G83U C103A C132G U145G,≤ -4.2
11,G50C U134C,-2.51
12,G50A G84A C95G U146C,-0.861
13,G50A G86A C131U,-1.93
14,G50A U90C C96G A115U,≤ -4.2
15,C51A C54U A91U G100U G124A U135C,≤ -4.2
16,C51G C79G C96G,≤ -4.2
17,G50C C95G U101G A115U C118G A122C G126U,≤ -4.2
18,C51A A66G G71A G80C G94C A113G,≤ -4.2
19,G50C C63U U82C A115U U146A,-1.83
20,G50U G81A C95U,0.505
21,C51A A73U C99U C103A U104A G126C U139A,≤ -4.2
22,C51G C54U A98G C132A U135G,≤ -4.2
23,G50U A60C G84A,-2.47
24,G50C A52C C54U G88A C96G,≤ -4.2

row,Variant,polymerase ribozyme fitness (log ratio)
1,G50C A52C U55A G86A,-3.95
2,G50C C96G U144C,≤ -4.2
3,C51A U55G A60G C93U,-2.7
4,C51A C118G,-3.24
5,G50C C69A C79A U82G U90G A107G A120G C129G U139G C149G,≤ -4.2
6,C51U A60U G84A A98G A121C G143U A147C,≤ -4.2
7,G50U U56A C114U,-2.18
8,C51A C63U C85A G126A C129A G140A,≤ -4.2
9,G50C C87U C103G A121G C123U C125G,≤ -4.2
10,G50U C87U A89G,-3.95
11,G50A U82C,-0.783
12,G50U U53G C69G G94A,≤ -4.2
13,G50U U53A G58A A73G C79A C93A A107U C116G G136C,≤ -4.2
14,G50U G94A U102C C103U,-3.63
15,C51A C57U U146G,-1.67
16,G50A G59A U101G,-0.0298
17,G50U U56A G83A,-0.268
18,G50C A52C G86U C87A,≤ -4.2
19,G50C A52C U56C C96U A107U,≤ -4.2
20,C51A G67A A73G C95A U101G G140U U151G,≤ -4.2
21,G50C G141U,-2.26
22,C51A G117U,-1.02
23,G50C G81C C93G C95U A110C,≤ -4.2
24,G50U C96A C116G U144G,-1.25

row,Variant,polymerase ribozyme fitness (log ratio)
1,G50U C57U G92C,-0.983
2,G50C A52C,-2.71
3,C51A C57A C87U A98G U146G,-3.12
4,G50A G59C U90G,≤ -4.2
5,G50C G94A C129U U135G,≤ -4.2
6,G50A G84U,-1.58
7,G50A G84A,-2.43
8,C51A C57U G59U G100C A119U A122U U145G,-4.13
9,G50C U102G,-3.32
10,G50C G71U C85A G124U,≤ -4.2
11,C51G A106G U144A,-3.29
12,G50C G81A G86U C87A G136U,≤ -4.2
13,G50U U78C U139G,-3.06
14,G50C C75U C93G A115G,≤ -4.2
15,G50U G65C A66C C96G,≤ -4.2
16,G50U U139C,-3.65
17,C51U A60G C85A,-3.39
18,G50C C76U,-1.88
19,G50U A97U A147U,0.621
20,G50U G92A,-2.93
21,G50C C96U U134A,≤ -4.2
22,C51A U82G C96U G143C,≤ -4.2
23,G50A U77G G81A A91U A97G A122U,≤ -4.2
24,C51A A52C U146G,-2.06

row,Variant,polymerase ribozyme fitness (log ratio)
1,G50C U104C C116A G143U,≤ -4.2
2,G50U G94A,-0.00242
3,C51G G58C,-1.42
4,G50C C75U C85G,≤ -4.2
5,G50U C79G A98U C99G,≤ -4.2
6,C51G C57U G67C C87G A91G,≤ -4.2
7,G50U C95U C118A G140A,≤ -4.2
8,G50C G94A A107G U134C,≤ -4.2
9,G50U U55A G71U,-3.35
10,G50C U77G C93G,≤ -4.2
11,G50U G84A A91U C116A,≤ -4.2
12,G50C G94A C116U,-3.3
13,G50U C87U G92A,0.244
14,C51G C96A A147C,-3.82
15,G50C C85U,-2.99
16,G50A U56G C85U A115C U144G,-2.74
17,C51G C63U C116U U139C,≤ -4.2
18,G50A U78G,-4.06
19,G50U G80A G92A A115U,≤ -4.2
20,C51A A52C A73G G83U U127C,≤ -4.2
21,C51A G74A,≤ -4.2
22,G50U C87U G152U,-4.17
23,G50C C87G C114A A115G,≤ -4.2
24,C51A A60G C95G U146C U151G,≤ -4.2

row,Variant,polymerase ribozyme fitness (log ratio)
1,G50A U145C,-0.761
2,G50C C76U C85U C116G,-2.09
3,G50C C93G C99U,≤ -4.2
4,C51A C57G G68C A73C C76G G86U G100C A120G A122C U134A,≤ -4.2
5,G50A G83A A97G,-0.838
6,C51G A73U,-3.44
7,G50U U146C,0.0837
8,G50A U78A G83A G100A A107C,≤ -4.2
9,G50A U56C,-1.2
10,G50A U56A,-1.5
11,G50C C57G C95A A115C,≤ -4.2
12,G50C G59C G62A G68C C95U U148C,≤ -4.2
13,G50U C99A,-1.59
14,G50C U53A C57G A73G C93A C95A U101G A107G A138C U144C,≤ -4.2
15,G50A G71C U82G C85G,≤ -4.2
16,G50C C118G G140A,≤ -4.2
17,G50A G70A,-3.76
18,G50C C63G C96A C118U A119C,-0.626
19,C51A G140U,-4.11
20,C51A G140C,-4.19
21,C51G C76A C87U,≤ -4.2
22,G50A G68A C96G C99U G136A,≤ -4.2
23,G50C A64G A89C G94C U101G A106U G133U,-4.12
24,G50C A66C A91U A106C A137C U148A,≤ -4.2

row,Variant,polymerase ribozyme fitness (log ratio)
1,G50A C96U G141U,-0.125
2,G50U A66C C76U U82G A89G A138U,≤ -4.2
3,G50C C54U,-2.6
4,G50A C125U,-1.35
5,G50C C51A,-0.896
6,G50C U61A G62U A142C,-2.79
7,G50C U101G,-2.64
8,C51A C96A A115G A137U,≤ -4.2
9,G50A G86A,-3.01
10,G50A G86U,-3.78
11,G50U C85A,-1.4
12,C51A U55G G58U C95A,-1.74
13,C51G A52G U102A,-3.01
14,G50U C96U C99A C103G G124C C129A U144G,≤ -4.2
15,C51G A64C C69U G80A G86A C96U C114A,≤ -4.2
16,G50U U55A A66G C95U C103A A138U,≤ -4.2
17,C51A A137C,≤ -4.2
18,G50C A64U G100U U111C G136C,≤ -4.2
19,G50C U104G,≤ -4.2
20,G50U G86A,-2.57
21,G50U G86U,-1.71
22,C51A C96A,-1.26
23,G50U G126A G141C,-4.02
